Assay results reported in patent US20080300209, “GENE EXPRESSION AND PAIN” (ADYNXX, INC., published 2008).

Tests used:
[1] = biological target: T1, EGR1 (endogenous, HL60 cells) (Homo sapiens, UniProt P18146 P18146:1-543); assay: cell_activity; inhibition of CDK5R1 mRNA in HL60 cells 48 h after vitamin D3; figure legend states 443 nM
EGR1 [2] = biological target: T2, EGR1 (Homo sapiens, UniProt P18146 P18146:1-543); assay: competition; ELISA; self-competition vs 128 nM biotinylated SEQ 40 probe, 10 ug nuclear extract; conditions: protein: extract; tags: endogenous in nuclear extract of TPA-stimulated K-562 cells (Activemotif); label: biotin (probe)
Description: (§1) FIG. 2. A. Relative affinity. Quantitative competition ELISA involving hEGR1 were performed using a constant concentration of biotinylated SEQ ID NO.: 40 (128 nM) as the probe and 10 μg of protein extract. The probe-protein mix was incubated with increasing concentrations of SEQ ID NO.: 40, SEQ ID NO.: 41 or SEQ ID NO.: 42 competitors. The inhibition of hEGR1 binding by the probe was measured for each competitor at various concentrations and the resulting inhibition curves were fitted to an exponential decay model. […] Mean±SEM are given as a percentage of the maximum hEGR1 binding obtained with the probe in absence of competitor; n=2-4. B. Relative specificity. The relative binding of EGR1 oligonucleotide decoy sequences to hSP1 and hWT1 transcription factors was measured using quantitative ELISA. Top graph: representative OD binding values of SEQ ID NO.: 40 (128 nM) to either hSP1 or hWT1 transcription factors, as compared to hEGR1 binding, was detected with transcription factor-specific antibodies in either the presence or absence of SEQ ID NO.: 42 competitor (512 nM). For comparison, SEQ ID NO.: 11 binding to hSP1 is shown. […]
(§2) The affinity and specificity of decoy sequences for their transcription factor targets was measured with colorimetric transcription factor ELISA (Enzyme linked immuno adsorbent) kits (Panomics, Calif., USA). […]

[3] = biological target: T1, EGR1 (endogenous, HL60 cells); assay: cell_activity; inhibition of CDK5R1 mRNA in HL60 cells 48 h after vitamin D3; figure legend states 502 nM
EGR1 [4] = biological target: T2, EGR1; assay: competition; ELISA vs 128 nM biotinylated SEQ 40 probe, 10 ug nuclear extract; conditions: protein: extract; tags: endogenous in nuclear extract of TPA-stimulated K-562 cells (Activemotif)
Description: as §1, §2

[5] = biological target: T1, EGR1 (endogenous, HL60 cells); assay: cell_activity; inhibition of CDK5R1 mRNA in HL60 cells 48 h after vitamin D3; figure legend states 136 nM

T1 sequence (P18146 whole entry, one chain of several): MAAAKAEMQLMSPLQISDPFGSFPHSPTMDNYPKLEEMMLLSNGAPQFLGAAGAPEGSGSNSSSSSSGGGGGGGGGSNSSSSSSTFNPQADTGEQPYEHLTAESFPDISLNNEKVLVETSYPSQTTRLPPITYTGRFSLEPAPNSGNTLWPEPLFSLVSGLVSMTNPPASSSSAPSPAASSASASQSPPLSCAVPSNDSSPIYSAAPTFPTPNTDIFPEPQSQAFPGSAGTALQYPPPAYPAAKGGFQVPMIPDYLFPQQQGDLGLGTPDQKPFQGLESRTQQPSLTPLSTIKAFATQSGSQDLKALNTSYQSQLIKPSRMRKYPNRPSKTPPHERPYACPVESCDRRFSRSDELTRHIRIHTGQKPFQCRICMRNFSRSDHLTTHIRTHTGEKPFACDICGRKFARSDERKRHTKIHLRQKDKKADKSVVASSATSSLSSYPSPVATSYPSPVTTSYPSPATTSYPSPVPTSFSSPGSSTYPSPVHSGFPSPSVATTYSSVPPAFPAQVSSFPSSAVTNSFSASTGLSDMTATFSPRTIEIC
T2 sequence (P18146 whole entry, one chain of several): as above

| Binder | IC50 [1] | IC50 (EGR1 [2]) | IC50 [3] | IC50 (EGR1 [4]) | IC50 [5] |
| --- | --- | --- | --- | --- | --- |
| SEQ ID NO 40 double EGR1 site decoy (dsDNA) DNA 1: GTTATGCGTGGGCGTAGATGCGGGGGCGTTATAG DNA 2: CTATAACGCCCCCGCATCTACGCCCACGCATAAC | 0.544 µM | 0.215 µM | – | – | – |
| SEQ ID NO 41 EGR1 consensus decoy (dsDNA) DNA 1: GATGCGTGGGCGTAGG DNA 2: CCTACGCCCACGCATC | – | – | 0.529 µM | 0.25 µM | – |
| SEQ ID NO 42 fused EGR1 sites decoy (dsDNA) DNA 1: GTATGCGTGGGCGGTGGGCGTAG DNA 2: CTACGCCCACCGCCCACGCATAC | – | – | – | 0.099 µM | 0.15 µM |
